The labels stand for the following.
B1: LINE1-mini (parent)
chain: GGCAGAGCUCAACACAGCGUGGCAAAGUGGCUGUGGCUAGACUGCC

In the data set the parent is B1. The data set can be described thus: self-cleavage, relative activity (ratio to wild type); higher = more cleavage; in vitro, sequencing; the parent is a self-cleaving ribozyme.
For C10G C37G, the self-cleavage came to 0.01.

With C10G C37U, the self-cleavage was determined as 0.01.

As to C10G C37A, the self-cleavage came to 0.01.

For U9G G30C, the self-cleavage was 0.06.

For U9G G30A, the self-cleavage amounted to 0.09.

Take U9G G30U: the self-cleavage was found to be 0.1.

Regarding U9G C46U, the self-cleavage is 0.11.

As for U9G C46A, the self-cleavage was 0.1.

On to U9G C46G, for which the self-cleavage is 0.05.

In the case of C10U A12G, the self-cleavage came out at 0.02.

For the variant C10U A12C, the self-cleavage amounted to 0.02.

With C10U A12U, the self-cleavage amounted to 0.08.

Consider C10G A11C, for which the self-cleavage amounted to 0.02.

For the variant C10G A11U, the self-cleavage was 0.04.

For the variant C10G A11G, the self-cleavage was determined as 0.03.

On to U9G U34A, for which the self-cleavage turned out to be 0.04.

Take U9G U34G: the self-cleavage stood at 0.05.

U9G U34C: the self-cleavage turned out to be 0.06.

Take U9G G19C: the self-cleavage was determined as 0.06.

In the case of U9G G19A, the self-cleavage stood at 0.18.

For U9G G19U, the self-cleavage came to 0.1.

As to C10A G27C, the self-cleavage was found to be 0.04.

C10A G27A: the self-cleavage came out at 0.06.

Turning to C10A G27U, the self-cleavage came to 0.06.

In the case of C10G C46G, the self-cleavage came to 0.05.

Turning to C10G C46A, the self-cleavage was 0.09.

In the case of C10G C46U, the self-cleavage turned out to be 0.06.

As to U9G C31A, the self-cleavage came to 0.04.

As for U9G C31G, the self-cleavage is 0.04.

Take U9G C31U: the self-cleavage is 0.03.

In the case of C10G G22C, the self-cleavage was 0.12.

Turning to C10G G22A, the self-cleavage turned out to be 0.13.

C10G G22U: the self-cleavage was 0.11.

For the variant C10A G19A, the self-cleavage was determined as 0.07.

For C10A G19C, the self-cleavage amounted to 0.05.

In the case of C10A G19U, the self-cleavage was determined as 0.06.

As to U9G U20G, the self-cleavage is 0.06.

In the case of U9G U20A, the self-cleavage is 0.07.

On to U9G U20C, for which the self-cleavage is 0.05.

As to C10A A39G, the self-cleavage was 0.04.

Take C10A A39U: the self-cleavage came out at 0.24.

Consider C10A A39C, for which the self-cleavage turned out to be 0.05.

With U9G A16G, the self-cleavage turned out to be 0.07.

With U9G A16C, the self-cleavage was 0.03.

As to U9G A16U, the self-cleavage came to 0.14.

As to U9G G36C, the self-cleavage stood at 0.04.

On to U9G G36A, for which the self-cleavage amounted to 0.61.

For the variant U9G G36U, the self-cleavage was found to be 0.12.

For C10G C18A, the self-cleavage turned out to be 0.08.

On to C10G C18U, for which the self-cleavage stood at 0.09.

As for C10G C18G, the self-cleavage is 0.04.

C10G U32A: the self-cleavage was 0.02.

Regarding C10G U32G, the self-cleavage worked out at 0.02.

With C10G U32C, the self-cleavage stood at 0.03.

U9G C23A: the self-cleavage came to 0.11.

U9G C23U: the self-cleavage was found to be 0.07.

As to U9G C23G, the self-cleavage was found to be 0.15.

Consider C10A A26U, for which the self-cleavage was determined as 0.06.

Regarding C10A A26C, the self-cleavage came to 0.04.

Take C10A A26G: the self-cleavage was determined as 0.12.

In the case of C10A C13A, the self-cleavage turned out to be 0.03.

In the case of C10A C13U, the self-cleavage came out at 0.04.

For C10A C13G, the self-cleavage was 0.03.

As for C10A G44U, the self-cleavage worked out at 0.03.

C10A G44C: the self-cleavage amounted to 0.07.

Turning to C10A G44A, the self-cleavage was 0.07.

Regarding U9G U43A, the self-cleavage was 0.07.

Take U9G U43C: the self-cleavage was found to be 0.04.

As to C10A G22A, the self-cleavage was 0.05.

In the case of C10A G22U, the self-cleavage was 0.07.

For the variant C10A G22C, the self-cleavage worked out at 0.03.

Consider U9G C13G, for which the self-cleavage came to 0.08.

As to U9G C13U, the self-cleavage was 0.11.

Regarding U9G C13A, the self-cleavage stood at 0.19.

Turning to C10A G36A, the self-cleavage was 0.02.

C10A G36U: the self-cleavage is 0.04.

Consider C10A G36C, for which the self-cleavage turned out to be 0.02.

On to C10G G27C, for which the self-cleavage turned out to be 0.09.

Turning to C10G G27U, the self-cleavage is 0.08.

C10G G27A: the self-cleavage was found to be 0.14.

With C10G G35A, the self-cleavage was 0.03.

In the case of C10G G35C, the self-cleavage worked out at 0.02.

With C10G G35U, the self-cleavage is 0.04.

Consider C10G U34A, for which the self-cleavage is 0.03.

As for C10G U34G, the self-cleavage amounted to 0.03.

In the case of C10G U34C, the self-cleavage turned out to be 0.04.

On to C10A C45A, for which the self-cleavage amounted to 0.04.

For the variant C10A C45U, the self-cleavage amounted to 0.07.

Consider C10A C45G, for which the self-cleavage was found to be 0.03.

Consider C10G C31A, for which the self-cleavage stood at 0.04.

Turning to C10G C31G, the self-cleavage was 0.02.

Turning to C10G C31U, the self-cleavage stood at 0.05.

As to U9G C37U, the self-cleavage is 0.15.

For U9G C37A, the self-cleavage amounted to 0.22.

In the case of U9G C37G, the self-cleavage amounted to 0.05.

For C10A G17C, the self-cleavage came to 0.1.

In the case of C10A G17A, the self-cleavage was determined as 0.04.

As to C10A G17U, the self-cleavage stood at 0.05.

As for C10A U43C, the self-cleavage stood at 0.03.

As to C10A U43A, the self-cleavage was found to be 0.01.

On to C10A U43G, for which the self-cleavage is 0.

On to C10A U20G, for which the self-cleavage came to 0.03.

Consider C10A U20A, for which the self-cleavage was 0.05.

Take C10A U20C: the self-cleavage was 0.06.

Turning to U9G G17U, the self-cleavage turned out to be 0.08.

Turning to U9G G17A, the self-cleavage stood at 0.12.

Consider U9G G17C, for which the self-cleavage came to 0.1.

Take C10A A16U: the self-cleavage amounted to 0.05.

With C10A A16G, the self-cleavage came to 0.07.

Consider C10A A16C, for which the self-cleavage is 0.04.

Regarding U9G C18U, the self-cleavage turned out to be 0.09.

Consider U9G C18G, for which the self-cleavage is 0.04.

As to U9G C18A, the self-cleavage amounted to 0.07.

Consider U9G A39C, for which the self-cleavage came to 0.05.

Regarding U9G A39G, the self-cleavage is 0.08.

As for C10G G36U, the self-cleavage was 0.02.

As for C10G G36A, the self-cleavage is 0.01.

As to C10G G36C, the self-cleavage came to 0.03.

As to C10A A14U, the self-cleavage turned out to be 0.05.

Consider C10A A14G, for which the self-cleavage turned out to be 0.06.

For the variant C10A A14C, the self-cleavage was found to be 0.02.

As to C10G G33A, the self-cleavage was determined as 0.03.

On to C10G G33U, for which the self-cleavage was found to be 0.02.

Take C10G G33C: the self-cleavage was 0.02.

On to C10G C15A, for which the self-cleavage was 0.04.

C10G C15G: the self-cleavage is 0.03.

For the variant C10G C15U, the self-cleavage came out at 0.09.

On to U9G G40U, for which the self-cleavage amounted to 0.08.

Take U9G G40C: the self-cleavage came to 0.08.

On to U9G G40A, for which the self-cleavage turned out to be 0.08.

Turning to C10U A11G, the self-cleavage was determined as 0.05.

For C10U A11C, the self-cleavage was determined as 0.05.

C10U A11U: the self-cleavage stood at 0.09.

Take U9G C10A: the self-cleavage was determined as 0.03.

With U9G C10U, the self-cleavage stood at 0.05.

Consider U9G C10G, for which the self-cleavage was determined as 0.02.

For the variant U9G A24C, the self-cleavage was 0.07.

Take U9G A24U: the self-cleavage was 0.18.

Take U9G A24G: the self-cleavage was found to be 0.14.

With U9G U28C, the self-cleavage was found to be 0.04.

Take U9G U28A: the self-cleavage was 0.11.

Take U9G U28G: the self-cleavage was 0.06.

Regarding C10A C37A, the self-cleavage amounted to 0.01.

As for C10A C37U, the self-cleavage is 0.01.

For the variant C10A C37G, the self-cleavage was determined as 0.01.

For C10G A12G, the self-cleavage was found to be 0.03.

C10G A12U: the self-cleavage is 0.03.

For C10G A12C, the self-cleavage is 0.03.

As for C10A C42A, the self-cleavage stood at 0.02.

C10A C42U: the self-cleavage worked out at 0.03.

On to C10A C42G, for which the self-cleavage is 0.16.

Regarding U9G C15U, the self-cleavage was 0.17.

U9G C15A: the self-cleavage amounted to 0.1.

As for U9G C15G, the self-cleavage came out at 0.43.

As for C10G C13A, the self-cleavage amounted to 0.03.

In the case of C10G C13U, the self-cleavage turned out to be 0.04.

In the case of C10G C13G, the self-cleavage was determined as 0.08.

Consider C10A C23A, for which the self-cleavage came out at 0.06.

For the variant C10A C23G, the self-cleavage was determined as 0.07.

As for C10A C23U, the self-cleavage was found to be 0.06.

U9G C42G: the self-cleavage was determined as 0.06.

With U9G C42U, the self-cleavage came out at 0.05.

Regarding U9G C42A, the self-cleavage came out at 0.08.

For the variant C10G U43C, the self-cleavage turned out to be 0.02.

With C10G U43A, the self-cleavage stood at 0.01.

For the variant C10G U43G, the self-cleavage amounted to 0.02.

U9G U38C: the self-cleavage worked out at 0.09.

The record behind these values is the RNAGym collection of RNA variant scans (doi:10.7554/elife.90254).
